Results: paper PMC7728349, “Exploring the Interaction between the SWI/SNF Chromatin Remodeling Complex and the Zinc Finger Factor CTCF” (International Journal of Molecular Sciences, 2020)
Entries after “also recorded” stand apart in the source; their conditions may differ.

Legend:
[1] = target: T1, CTCF zinc finger domains 1–11 (residues 263–582), MBP-fused (Homo sapiens, UniProt P49711); experiment: Biolayer interferometry (BLI), immobilised BRK-BRG1 vs MBP-fused CTCF zinc fingers 1–11; format: binding
T1 construct: CTCF zinc finger domains 1–11 (residues 263–582) and 4–8 (residues 348–494); made in house; host or cells: E. coli BL21
Experimental: (§1) 4.8. Recombinant CTCF Zinc Finger Domains 1–11 and 4–8 Expression and Purification
(§2) The plasmids CTCF-ZF1-11-pMalC2G and CTF-ZF4-8-pMalC2G, obtained as previously reported, were used to transform E. coli BL21 host strain. Transformed colonies were inoculated in LB 0.2% glucose medium and grown a 37 °C, until the culture reached the optical density of 0.6 nm at 600 nm (OD600). At this point of growth, 200 µM ZnSO4 was added to the culture and the expression of the protein was induced by using IPTG 0.3 mM. When the culture reached 0.9 OD600, bacterial cells were harvested by centrifugation. Pellets were resuspended in PBS (pH 7.4) and lysed by sonication on ice. Lysates were centrifuged for 30 min at 27.500 relative centrifugal force and the supernatants containing the expressed proteins were loaded on amylose resin (New England Biolabs, Milan, Italy), according to the manufacturer’s protocol, and incubated overnight under rotation. Following washes with 1X PBS, the purified proteins MBP-CTF-ZF4-8 and MBP-CTCF-ZF1-11 were obtained adding maltose elution buffer (10 mM maltose, 1X PBS). Then, the affinity-purified proteins were loaded onto an HiLoad 26/60 Superdex 75 gel filtration chromatography column (GE Healthcare, Milan, Italy) equilibrated and eluted with PBS. The purified products were finally concentrated using a Amicon Ultra Centrifugal Filter (Merck).
4.9. […]

[2] = target: T2, CTCF zinc finger domains 4–8 (residues 348–494), MBP-fused (Homo sapiens, UniProt P49711); experiment: Biolayer interferometry (BLI), immobilised BRK-BRG1 vs MBP-fused CTCF zinc fingers 4–8; format: binding
T2 construct: and 4–8 (residues 348–494) in a bacterial expression system; made in house; host or cells: E. coli BL21
Experimental: as §1, §2
4.9. […]

[3] = test system: BRK-BRG1 (BRK domain of human BRG1, region 612–656); experiment: BLI detection limit, MBP-fused CTCF zinc finger domains on immobilised BRK-BRG1; format: binding; settings: PBS
Experimental: 4.9. Binding of BRK-BRG1 to Recombinant CTFC Multiple Zinc Finger Domains by Biolayer Interferometry (BLI)
BLI measurements were performed using a BLItz system and ARG2 commercial biosensors (ForteBio, CA, United States), following the manufacturer’s instructions. A reduced volume sample cuvette (4 µL) was used for all the experiments. Assays were performed by immobilizing the synthetic BRK-BRG1 domain on the surface of the sensor chip and exposing it to solutions of recombinant CTFC domain 1–11 or CTCF domains 4–8, both fused to MBP, dissolved in PBS at increasing concentrations. After pre-hydration for 10 min in PBS buffer, the immobilization was achieved by pre-activating the sensor surface for 180 s with EDC/NHS, both in water, at 0.4 M and 0.1 M, respectively. Then, the sensor chip was exposed for 300 s to a solution of BRK-BRG1 at 200 µg/mL in sodium acetate pH 4.5. After extensive washing with buffer, the sensor chip surface was deactivated using 1 M ethanolamine in water pH 8.5 for 180 s. Binding assays were performed after exposure for 30 s to PBS (running buffer) to acquire the initial baseline. Next, the derivatized chip was exposed to the CTFC protein solutions in PBS for 120 s, followed by PBS washes (120 s). Then, the sensor chip was fully regenerated, restoring the baseline, by treatment with a solution of NaOH 5 mM for 10 s and a further wash with PBS. […]

[4] = Precipitation of MBP-fused CTCF domains 1–11 in PBS; format: physicochemical; settings: concentrations higher than 3.0 µM
Experimental: as §2, with “(Merck). […]” for “(Merck).”

[5] = target: T3, MBP-fused CTCF zinc finger domains 1–11 (residues 263–582) (human, UniProt P49711 263-582); experiment: BLI; synthetic BRK-BRG1 immobilised on ARG2 biosensor by EDC/NHS (BLItz); MBP-fused CTCF zinc finger domains as analytes in PBS; free MBP signal subtracted; KD from plateau shifts, one binding site hyperbola; settings: both partners purified
T3 construct: CTCF zinc finger domains 1-11, residues 263-582; also called MBP-CTCF-ZF1-11; CTCF domains 1–11; source: E. coli BL21, purified (amylose resin, Superdex 75 gel filtration)
T3 sequence (looked up): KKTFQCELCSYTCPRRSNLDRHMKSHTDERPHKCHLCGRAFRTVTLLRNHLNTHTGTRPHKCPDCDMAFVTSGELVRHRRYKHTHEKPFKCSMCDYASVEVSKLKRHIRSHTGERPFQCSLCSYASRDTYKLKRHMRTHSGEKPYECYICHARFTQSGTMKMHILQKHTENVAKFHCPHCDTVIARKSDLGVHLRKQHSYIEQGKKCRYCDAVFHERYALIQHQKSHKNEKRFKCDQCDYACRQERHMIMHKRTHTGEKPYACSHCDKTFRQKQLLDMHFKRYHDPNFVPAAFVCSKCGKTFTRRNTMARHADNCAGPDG

[6] = target: T4, MBP-fused CTCF zinc finger domains 4–8 (residues 348–494) (human, UniProt P49711 348-494); experiment: as above; settings: both partners purified
T4 construct: CTCF zinc finger domains 4-8, residues 348-494; also called MBP-CTF-ZF4-8; CTCF domains 4–8; source: E. coli BL21, purified (amylose resin, Superdex 75 gel filtration)
T4 sequence (looked up): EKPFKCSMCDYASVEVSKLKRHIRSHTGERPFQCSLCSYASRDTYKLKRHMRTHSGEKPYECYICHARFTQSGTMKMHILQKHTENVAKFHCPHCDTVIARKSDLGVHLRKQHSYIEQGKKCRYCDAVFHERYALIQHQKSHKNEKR

## Ac-MSDLPVKVIHVESGKILTGTDAPKAGQLEAWLEMNPGYEVAPRSD-NH2 [BRK-BRG1]
[1]
  direct binding to CTCF zinc finger region 1–11, result in words: binds the CTCF region including the eleven zinc finger domains
[2]
  direct binding to CTCF zinc fingers 4–8, result in words: direct binding; also recorded: the region encompassing domains from 4 to 8 strongly contributes to this interaction; also recorded: binds the zinc finger motifs 4–8 of CTCF

B1: MBP-fused CTFC domains 1–11: recombinant maltose-binding protein (MBP)-fused CTCF zinc finger domains 1–11 (residues 263–582) (protein)
chain: KKTFQCELCSYTCPRRSNLDRHMKSHTDERPHKCHLCGRAFRTVTLLRNHLNTHTGTRPHKCPDCDMAFVTSGELVRHRRYKHTHEKPFKCSMCDYASVEVSKLKRHIRSHTGERPFQCSLCSYASRDTYKLKRHMRTHSGEKPYECYICHARFTQSGTMKMHILQKHTENVAKFHCPHCDTVIARKSDLGVHLRKQHSYIEQGKKCRYCDAVFHERYALIQHQKSHKNEKRFKCDQCDYACRQERHMIMHKRTHTGEKPYACSHCDKTFRQKQLLDMHFKRYHDPNFVPAAFVCSKCGKTFTRRNTMARHADNCAGPDG
modifications: left off: MBP, end not stated, kept
[3]; solutions at concentrations below 0.5 µM
  BLI shift at low concentration, domains 1–11: No shifts were measured
[4]
  precipitation of the protein: the protein underwent precipitation

B2: BRK domain of BRG1, region 612–656, synthetic polypeptide (peptide)
chain: Ac-MSDLPVKVIHVESGKILTGTDAPKAGQLEAWLEMNPGYEVAPRSD-NH2
notes: BRK domain of human BRG1, region 612-656; Coupled to the BLI sensor by EDC/NHS chemistry; also called BRK-BRG1; BRK-BRG1 domain; source: synthetic peptide (solid phase synthesis, purified by RP-HPLC)
[5]
  Kd: ~2300 nM
[6]
  Kd: ~95 nM

B3: MBP-fused CTFC domain 4–8: recombinant maltose-binding protein (MBP)-fused CTCF zinc finger domains 4–8 (residues 348–494) (protein)
chain: EKPFKCSMCDYASVEVSKLKRHIRSHTGERPFQCSLCSYASRDTYKLKRHMRTHSGEKPYECYICHARFTQSGTMKMHILQKHTENVAKFHCPHCDTVIARKSDLGVHLRKQHSYIEQGKKCRYCDAVFHERYALIQHQKSHKNEKR
modifications: left off: MBP, end not stated, kept
[3]; solutions at concentrations below 10 nM
  BLI shift at low concentration, domains 4–8: No shifts were measured
